From publication PMC8055034

What was measured:
CD4-IgG2 = CD4-IgG2 (UniProt P01730); experiment: D-7324 capture ELISA; conditions: value read at the highest concentration, CD4-IgG2 10 µg/ml; parent: est. 2.5; read off a plot
VRC01 = experiment: D-7324 capture ELISA; conditions: value read at the highest antibody concentration, VRC01 10 µg/ml; parent: est. 2.8; read off a plot
PGT145 = experiment: D-7324 capture ELISA; conditions: value read at the highest antibody concentration, PGT145 10 µg/ml; parent: est. 1.3; read off a plot
[1] = biological target: 1PGE-THIVC SOSIP.664 gp140 Env trimer (HIV-1 clade C); experiment: negative-stain EM; SEC-purified trimers at 0.01-0.03 mg/ml on carbon-coated grids, 2% uranyl formate, 2D class averages

Substance	response (CD4-IgG2) [A450]	response (VRC01) [A450]	response (PGT145) [A450]	stoichiometry N [1]
1PGE-THIVC SOSIP.664 gp140 Env trimer N279E	0.98	0.93	1.3	
1PGE-THIVC SOSIP.664 gp140 Env trimer (complex)				3
